In the supplement of paper PMC12636428:

System: Saccharomyces cerevisiae
Assay: transcriptional activation domain activity (GFP:mCherry ratio, weighted mean of sorted bins, harmonized to initial dataset scale) (arbitrary fluorescence ratio units); higher = stronger transcriptional activation
Conditions: beta-estradiol 1 µM; induction time 4 h
How it was run: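 The activation activity of each tile is the read-weighted mean of bin median fluorescence, averaged across its barcodes and mapped linearly onto the scale of the initial dataset. Tiles were fused to an estradiol-inducible synthetic transcription factor, barcoded, and integrated at URA3 in yeast diploids carrying a GFP reporter. Induction used 1 uM beta-estradiol in SC for 4 hours at 30 °C, after which cells were sorted into 8 GFP:mCherry bins, and any tile with fewer than 50 reads was dropped.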

Row | Sequence | transcriptional activation domain activity
1 | LPLYILSLLCCFFIIAMFWKVTIPFFLIFPSFFMLSCFHLYFSFSPSRWCILN | 38600
2 | MASEQVEEVTKKVADVAIEAPAAAPAKAPKAPKAPKAKKAKKEAAEGSSPLEL | 13700
3 | MGVLFLLCPCLCVVPLFCIAMQWSIGLYLCLDQRFPVLYTYFFILFSSILFCS | 48300
4 | PFAFLLLLLFPLVLFLPALLLLFLPLLPLLPLLLWILWIQTLQSLFSFPDISD | 46900
5 | CMLRFVIWLCSKCVPYRSGVWEEFKFLLDHPRRCFTLLFPSSANWWLFWVLIL | 59700
6 | MPWFIVCPLIFCSFGPFDALLSVLFFFYEHHFLLVIFPLTLIMQFSFLLSYFS | 53100
7 | TFLGFFDFTCSSPSYVIHHLDITNLFVSPFLFFPSFPSIFIFCWNILILGLFE | 57300
8 | IIAAKPEVLVKEEAAVKEEVPKAAAAKPKAKGKGKGKGKGKKVAEKKPEPVAE | 22400
9 | RPPPRPPPQTPASPSPSPTSTTPPRSPSASRASPARPHPPSGRRTRTTRAPRR | 56300
10 | NRRDASPEPHHKGKGKGKKNNRREAEADAEIEVREPHHKGKGKGKKNNAREAE | 21700
11 | LREVYLLSLFYRIKIRFLEAGFNRLKNLIKLDTRYYIVSFTYIVLELLKAKML | 63300
12 | AVSAGLMSGFGSSSDEDEDEEQENEEDVNNEVSYPLHKLSHRFFFGHNAPSGA | 15700
13 | KGGKRKRREEDDGEEKDSFGGRRGDDGPSRIAKNEGGDGRAGKHKRSGDDGKE | 31100
14 | ALDFGLVVRHTTVQYPVPLRFGLLNGNFSFMPLIINSWNMISYILSIYSLVLL | 64200
15 | MQGWVHALFSFFFNLIVVALLSCLCFIHLSSSYYNLCPVLYLTTPCLFIRFYI | 62000
16 | FFFSGTALRGIYVGCLVFLVLLWFLHMFFILFTFPFFFVLVWVLLFFRELHFA | 50600
17 | MRGTSLFLFYFISFLSLFLFQLLHFFFFSYFLFRYFVSIIIIFFLIQVVFGLV | 53200
18 | SLTREFNDIGLLTELHYVQGIETLIKIGTRFSMVAALVVYRNFRWHLSSAIPP | 48200
19 | ERLPVDLAVVCTIVERLFGLAVMTARLRKLGSLHGVLLPRTWVLALWRDFIRF | 67500
20 | PIDPETGRPKKGRPRKSVDAASAVGTSSTGEPQAKRARGRPKKNAGAVAATAV | 51100
21 | TSSPSAQTAASTTVVLVIGSDDKKVKEVGDELKTKLNVKGGGKGPRWSGKFTG | 24700

Row | Sequence | transcriptional activation domain activity
22 | FFCCSSLKRDMRFRSYLWAVWVGVVTGVKTSINLVSYRGLPPNNIIIKNLFFA | 67700
23 | LNGRRMMHEPLVYDMYEPQTPLIIIARVGVRLVFIVAKIGELPHCFIDEPPQQ | 23200
24 | ALVTVLLLLMGYLPHLNTVTLTVRTFRNRLSHHDFSQHELAIFLDLLPRRCPN | 98800
25 | LVYLARSLFFSLLFKRLYILYFLEVCIWHIFGFFFYLITLCANLVMPLLLCSV | 57600
26 | TSLVYPIHSSDTGDTLSSGLETPENSNFNSDSGIKEDFEAFRALLPLGKLIYD | 69500
27 | MNGDRDSGRSRDHYSSRGDRDDRRDRDRDRRRRSRSPGHRSSRRDYEVDTYSS | 45700
28 | MSFRFPTLFFFSLTLFLVSPFWFYLLFSVFFFLISLVFLESHFFCLGSINTLY | 39800
29 | VVLGWILGKECMTLYFDTFQIALLFVSVLLVNYLIQDGKSHWLEGVLLVCSYL | 37400
30 | NQRLREDGVDEIELDIISKLHPSRKDTAPRDIKPIPASKRGEISSKFEKLHEQ | < 6570
31 | PLLRVLQICSFKDLMFDVPHLHRFISNAELLRTLNHLDVSFSSYSVFLQLVGF | 70500
32 | RKREEEDARVQEAALKEEEDARVREAARKEEEEEAERLKRRREEEDARVQEAA | 22400
33 | NIDPAAIDDKWLSEFINNSDPKSTFKINFNHFNDIGFIYSPPSSRSSIPNKSP | 101000
34 | GGISKGENAHNFQNDTKKNMSTSNLFPFSFSNTDLTALFTHPEGPNCTNTNNG | 56600
35 | NMSPNNDDNSIDTASTNTTNRKKNIDENIKNNNDIINDIIFNTNLANNLSNYN | 51000
36 | MILYTWFFLRSPFFIFGILWVHGLVDRFLFCHLLVVYFCHLVNFFIHLKYANE | 55700
37 | RDRRRRSRSRSRDRRNKRRRRELEDRSKRRRSKSRVKNEETSEAEKRGRRRKP | 37900
38 | ELLNAIVLVHMKLETGDLPPIVSRHIGRFAEQVLSKTPIHLIVTTSFRTLHKI | 73400
39 | TLRVLLLQISPLAYARGLKDFLIHLISWTDGTWDSLDPLPWWWLYHVYWPLQF | 81000
40 | GTEYEIGRPSDEEVTITRMLDKVLRRSDAVDKESLCIVAGQRVWHLRLTLHCL | 68500
41 | MSSPEVNSSQPASSPRKARRYGFACASCKARKVKCSGDQPVCRACRRANESCV | 24300
42 | MGVCLCVALFAPFFSLFFFLSPAPYCSGKIWHLSILFLLYHCRRVLPLFILAC | 49600

Row | Sequence | transcriptional activation domain activity
43 | ITWSQLRRRFTPGFETFLDIGIERGWYSCNNTLQVMVFRWVFIPWLQQELSAY | 30600
44 | MTNQPTTQDGPSPVKHRACDECRSRKLACSKEPDGCSRCKKEGIVCHYSAQKQ | 28400
45 | GEGSAEDGGGSSEPRRLRRSHEACSRCRGKKIKCDSKHPRCTACATANTQCTQ | 25100
46 | EQQCICNYITSDPIWLIPLLGLLHRRLMYKVRLIYPFHISLANAFVTVCFHWL | 80900
47 | IHISPFLSFLLFNTFLFFFDILLEYDQSGKSSCSVLWGIGWGCWWILFIGSLQ | 38800
48 | RPDVVLIQAGLWARFWLFIVISHALLEYHTFADGICLCYVSTVVFLIRHAKLW | 68100
49 | TISRLVFAECFAESCVMFLLLMFQALDVLEPSSRLLNWRISLYILMSMILLFV | 52800
50 | NRWMMATFMSGCVGALVYFFYKLVKVVMLKSTPSFVSIWKSLTTFSIIAIFLL | 37200
51 | MPFSVSASNILLSPFHLIFWSIRNFSNILIFLFSPFFLVLYYASYVFTPIFIP | 96500
52 | SYSLNTSLCQAFWHVTWRLTPPLAVFLPINPFLCLHLHFTCTLFFLLSLVMLQ | 58400
53 | SSSRRRSQSPAAEASRSRRERSRDRSDAEDEGGSRSGSRRRRRRGSAEPREED | 41600
54 | IMTLFYSAQRHLNKLILATKIAAGVWPPPDAMAQLRFQIGQLLIFMQTFVSQC | 67400
55 | EEEDGEEDYGNRLFVIASDKLQEEQLLIDVPPGNILSSNLLQVLKEILKTRKK | 26100
56 | LQRKNPEEQIAVNKVISLLYSNRESSYLEDTCPTENDYSDLLKGYINEIEKTL | 33800
57 | ENVYRPFLMVYTEAIILIFSFYLIILYIVLFTFLEGYPYIFSRVYGISDSLTF | 40900
58 | MLLVSLVRVVHGFTVQQYIYTGQWLLYISLIFFLLHFPLVMKPITFLTILCLA | 55100
59 | PTTSFFFWYRLYCSVLLSIGILISIPTLWILPSCFLPNHWKALWVVVLSFLGW | 52400
60 | INSTIHNLCELAILPDLCGICCFSMRFFVYLDLIGTLILPSTVVYLVWLIIQV | 82700
61 | RGKSSSSSIGGAQEGAVRADETSHHHHHHHHQQQQQQQQQKQQQRHVQEQADI | 30600
62 | MHAFQAGRDMPLVRRRSGGCLESDGGGEERVLRCETEECMSKEGVVSVGAGAD | 35500
63 | PAAQFLTEKRDRGGGGKGGEEGGGGSGKKVYKGAAMPNRYGIRPGHRWDGVDR | 28200

Row | Sequence | transcriptional activation domain activity
64 | MYGNLTYTEWSRYLADMLSMQKLLFVSVEANCRERILLLRISGRCPQLCPLWA | 47200
65 | MGPWICQTQPTSYLILSGLVHSFLKSSQGFISYIFSTLVHMTFLVFLYIHLFR | 58800
66 | MSAFSGEDAPSPEGLDRKRKRQRTALSCTECKRRKIKCDRSQPCSSCIRRKVP | 42300
67 | GPLLFVEIRAGFFPLYYPFSFLCLSGFVFELGHYPSGSFVPGVLLSWSLNFII | 53700
68 | ESSGGESEDDYVQEKRSSKPKRRGSRRGDEEEGGGGRKRAAQKKRKRKQPEEV | 34800
69 | KAAAAPKKKKAGVSDEEEKEEEEAESTPVDEDPKPKTKKLAAAKKPAAAAAAK | 33700
70 | FYAALYPFKGIFFFIGHPFLYPLARARLIPAFLLSAFVLLNLFFWTYLPQVAF | 34300
71 | NLLARRPFFVFWFMGQIHRSLTLFHCDPTLLVALDVCKSLIPAINYLTLLWPC | 70900
72 | NMDQLDSVHNLNDDDLQQLLEDLGNIDHSDEKLWKEITDQAMWLGNTMDPTAA | 149000
73 | LILRMQVATLTKLWGLPPEFEIVCRDIWALHLSLLPDPPPPEPYYFHERGDGM | 34400
74 | ENLRTVGLGSVRDICLRNASEQAILTIIDFPLRVLAMIAQIRTGLWVRNGFAI | 53000
75 | PTCALLSLQPVLPSPFGPPSSLLPVTSLFYLSPPSLLCILALSSFLLILPLLF | 38800
76 | VRVPDFHHADGRDHVRDGEDGHGDGHVRVHAHAQGGGQGRGLARDRVDAHARE | 13200
77 | MSHLLSSFLYDSLSFCFILLFGFDVILFPLFKYLWTTSSFYMFWMPDHLTLAV | 73900
78 | MAPVTQTEWPRQRALHSKSRNGCTTCKQRRVKCDEGKPVWPSAARTAGADRSS | 50600
79 | NKKRETRKGESTKSNDEEEEEEEDDDDEKKQGQKKQSNGQSKKSNGSSKKEED | 48700
80 | KLLLVHGRWSYQRIADMHANFFYKNVIWTFGLFWYMPFNGFDATYLYHYTFIL | 58100
81 | MCMYFFTFFFFTFLFFFTFFVFFFFVSMEYLPTLLALIYIYYMSLPTSAQCSN | 35900
82 | LHNRFGAFTPSKTPKSVFVVTYLGRVFITIMFCLVVVIAALTIKYSADSNNLY | 9590
83 | GLGKEGESYIVAMGAVSGGIIIYRRIEGGAGLVEVVRNSTAVARTTAVMIALE | 42400
